From paper PMC3020918 come the findings set out here.

For this assay, the target named is myc-Snc2p (S. cerevisiae) (UniProt P33328). The assay can be described thus: co-IP.
Chain of UniProt P33328 (P33328 whole entry): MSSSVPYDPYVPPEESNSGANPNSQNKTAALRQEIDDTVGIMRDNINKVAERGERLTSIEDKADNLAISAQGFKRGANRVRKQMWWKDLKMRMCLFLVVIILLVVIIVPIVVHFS

“Sso1/2p (endogenous) (from UniProt P32867 1-290) (natural protein)” showed a percent reduction of co-precipitation, wt cells at 37°C against 30°C of 10%.
